First the molecules themselves.
B1: peptide P14 (peptide)
peptide: CASDIVEGLYIVLAER
notes: Chemically synthesized by the Fmoc method; immobilized on a CM5 sensor chip by amine coupling (200 RU) for the Biacore assay; also called Peptide 14
B2: peptide P21 (peptide)
peptide: CQHILGSDIVEGIYL
notes: Chemically synthesized; immobilized on a CM5 sensor chip by amine coupling (270 RU) for the Biacore assay; also called Peptide 21
B3: peptide P15 (peptide)
peptide: CASDIVEGIYL
notes: Chemically synthesized; immobilized on a CM5 sensor chip by amine coupling (130 RU) for the Biacore assay; also called Peptide 15

The target of this experiment is T1, Recombinant Human Insulin Receptor (28-956) (human, UniProt P06213 28-956).
T1 construct: range 28-956; Bought soluble receptor used as the analyte; also called soluble insulin receptor; SIR
Put plainly: SPR (BIAcore), peptide immobilized on CM5 by amine coupling, SIR as analyte 0.781-100 nM. The method, then:
The ligand was immobilized on the sensor chip CM5 research grade (Biacore AB) by the amine coupling method. Thus, the peptide mentioned above was dissolved in 20 mM carbonate buffer (pH 8.5) (500 μg/ml), and 100 μl of the solution was passed through the flow cell at a flow rate of 5 μl/min. The amount of the peptide immobilized was 200 RU (resonance units).
Recombinant Human Insulin Receptor (28-956) (GT/TECHNE Corp.) was used as the analyte soluble insulin receptor (SIR). To 50 mg in a vial was added HBS-EP buffer (250 ml) for thorough dissolution ([…]), and the solution was 10-fold diluted to give a 100 nM solution. Eight concentration levels from 100 nM to 0.781 nM were prepared by subsequent repetitions of doubling dilution, and measurements were carried out using HBS-EP buffer (10 mM HEPES pH 7.4, 0.15M NaCl, 3 mM EDTA, 0.005% Surfactant P20) (Biacore AB) as a running solution; the rate of flow was 10 μl/min. A sensorgram was thus obtained.
Recombinant Human Insulin Receptor (28-956) (GT/TECHNE Corp.) was used as the analyte SIR. Eight concentration levels from 100 nM to 0.781 nM were prepared by subsequent repetitions of doubling dilution, which was started from diluting 100 nM solution, and measurements were carried out using HBS-EP buffer as a running solution; the rate of flow was 10 μl/min. A sensorgram was thus obtained.
A general note: SPR reads the build-up and loss of mass on a sensor chip optically.
One may read the Kd as the concentration at which binding is half-saturated. Regarding B1, the dissociation constant (Kd) was found to be 1.6 µM.
On to B2, for which the Kd came to 12 µM.
With B3, the dissociation constant Kd is 24 µM.

These data come from patent US20080132679A1 (KANEKA, published 2008).
